Assay results taken from article PMC3229523, “Identification of Lactoferricin B Intracellular Targets Using an Escherichia coli Proteome Chip” (PLoS ONE, 2011).
Ends that are not written are not given here. * marks the point of attachment. Biotin = O=C1N[C@H]2[C@H](CS[C@H]2CCCCC(=O)*)N1

Columns and labels:
Experiment in all cases: peptide or protein array; E. coli proteome chip: purified His-tagged proteins printed in duplicate on Fullmoon slides, blocked with 1% BSA; 10 nM N-terminal biotinylated LfcinB with 1% BSA, room temperature, 1 h; detected with DyLight 649-labeled streptavidin, ratio to DyLight 549-labeled anti-His antibody; ProCAT normalisation, local cut-off; triplicate chips
Details in all cases: both partners purified
PaaG = molecular target: T1, PaaG (E. coli K-12, UniProt P77467 1-262)
T1 construct: PaaG, E. coli K-12
T1 sequence (looked up): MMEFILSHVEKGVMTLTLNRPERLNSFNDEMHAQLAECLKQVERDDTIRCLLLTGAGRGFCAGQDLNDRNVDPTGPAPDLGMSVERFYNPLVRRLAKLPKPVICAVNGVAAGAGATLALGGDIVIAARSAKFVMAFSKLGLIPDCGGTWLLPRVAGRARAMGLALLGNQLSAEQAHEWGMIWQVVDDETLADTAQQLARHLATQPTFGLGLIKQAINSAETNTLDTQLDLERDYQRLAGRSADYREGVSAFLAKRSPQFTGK

Sun = molecular target: T2, Sun (E. coli K-12, UniProt P36929 1-429)
T2 construct: Sun, E. coli K-12
T2 sequence (looked up): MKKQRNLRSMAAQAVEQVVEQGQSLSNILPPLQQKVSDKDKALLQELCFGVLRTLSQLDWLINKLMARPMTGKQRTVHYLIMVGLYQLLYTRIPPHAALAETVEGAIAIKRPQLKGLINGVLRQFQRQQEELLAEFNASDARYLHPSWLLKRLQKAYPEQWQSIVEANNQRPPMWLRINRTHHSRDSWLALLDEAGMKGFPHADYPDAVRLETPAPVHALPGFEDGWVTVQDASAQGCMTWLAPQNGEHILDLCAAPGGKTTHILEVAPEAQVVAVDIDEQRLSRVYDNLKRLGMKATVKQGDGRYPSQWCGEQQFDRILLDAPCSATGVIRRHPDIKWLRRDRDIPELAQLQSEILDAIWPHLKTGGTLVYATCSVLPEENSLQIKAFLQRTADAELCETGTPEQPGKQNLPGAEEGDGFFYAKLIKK

YjhI = molecular target: T3, YjhI (E. coli K-12, UniProt P39360 1-262)
T3 construct: YjhI, E. coli K-12
T3 sequence (looked up): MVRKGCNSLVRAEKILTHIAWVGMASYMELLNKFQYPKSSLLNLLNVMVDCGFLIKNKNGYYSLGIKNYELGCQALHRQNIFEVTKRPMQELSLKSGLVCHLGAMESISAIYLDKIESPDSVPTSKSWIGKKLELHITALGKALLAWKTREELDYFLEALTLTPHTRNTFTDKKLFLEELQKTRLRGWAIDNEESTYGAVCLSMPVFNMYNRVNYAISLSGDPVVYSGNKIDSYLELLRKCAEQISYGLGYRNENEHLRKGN

HisA = molecular target: T4, HisA (E. coli K-12, UniProt P10371 1-245)
T4 construct: HisA, E. coli K-12

SrmB = molecular target: T5, SrmB (E. coli K-12, UniProt P21507 1-444)
T5 construct: SrmB, E. coli K-12
T5 sequence (looked up): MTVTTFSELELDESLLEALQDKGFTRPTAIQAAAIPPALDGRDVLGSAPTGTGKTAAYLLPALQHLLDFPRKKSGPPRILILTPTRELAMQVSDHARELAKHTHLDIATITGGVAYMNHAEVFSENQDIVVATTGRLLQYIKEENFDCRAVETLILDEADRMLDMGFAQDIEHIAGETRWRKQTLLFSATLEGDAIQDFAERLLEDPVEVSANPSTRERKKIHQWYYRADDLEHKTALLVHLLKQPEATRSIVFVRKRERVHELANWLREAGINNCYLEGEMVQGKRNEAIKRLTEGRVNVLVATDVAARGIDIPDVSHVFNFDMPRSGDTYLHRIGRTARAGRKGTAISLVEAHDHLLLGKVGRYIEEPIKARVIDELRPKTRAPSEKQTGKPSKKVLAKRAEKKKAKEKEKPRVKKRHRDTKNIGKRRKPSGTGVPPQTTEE

Measured: binding result

T4 sequence (P10371 whole entry): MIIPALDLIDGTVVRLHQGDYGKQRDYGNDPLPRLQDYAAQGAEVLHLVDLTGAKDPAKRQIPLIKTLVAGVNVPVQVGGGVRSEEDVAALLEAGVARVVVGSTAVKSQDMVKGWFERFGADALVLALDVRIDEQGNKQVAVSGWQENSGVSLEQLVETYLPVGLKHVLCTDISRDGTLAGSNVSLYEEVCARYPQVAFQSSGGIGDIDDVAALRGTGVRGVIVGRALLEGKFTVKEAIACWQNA

B1: N-terminal biotinylated Lactoferricin B (peptide, UniProt P24627 36-60, looked up)
peptide: Biotin-FKCRRWQWRMKKLGAPSITCVRRAF
modifications: ends and bridges not checked
notes: lactoferricin B (LfcinB), cationic antimicrobial peptide of 25 amino acids; also called biotinylated LfcinB; biotin-labeled LfcinB; source: bought: Kelowna Inc
binds: all assays above
